# Measured values published in the domain aggregation screens of Martell et al. (2025).
# Assay: soluble fraction after stress (log2 fold change); higher = more stays soluble; pooled small domains, quantitative proteomics
# Conditions: stress: pH 4
# Summary of the method: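 After pH 4 stress, pooled custom libraries of small protein domains were quantified with high-throughput quantitative proteomics. Aggregation propensity is taken from the fold change in each domain's soluble amount following the acid stress. The scale is log2, where higher values mean more stayed soluble.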
row,Sequence,soluble fraction (log2)
1,HMEYYDDEELDRFRGVEADAYDEDAVNEFRDVLYTLQEIEVAGWLRSLQLRAINLPDELKDEAFLI,-2.01
2,HMPPDVIENIFKNDANKIIDLYNMAPRGQKETIVEMIKNKRLQGINVDANVLVKLGELTGIDFVN,-1.37
3,HMSFPQVELNTNKGRIVLELNSEKAPKTVANFLEYVRDGFYDGVIFHRVIDGFMIQGGGFDENFKEKA,-0.275
4,HMASVLTAKLSEREVDVLNLLARGFTNADIAAQLHLSEGTVRNHVSTIFAKLDVNDRTQAAVIAIRHGL,-0.176
5,HMGDADDLSRELLQQGLSLKEAVADFERRYLQQAMQRHSSIASVSEALDVHFSTLWRKLVKYNLV,-0.621
6,HMKDESYALGTRLLSHALGKTKLEDLAQEKIDEVVQQSGNKTLEQLLTNIGLGNALSIGIARQLT,≥ 0.43
7,HMQALTLVGQDAKDAKAALDAVDIQPAKTETDRYIYVLTEQQAQELGRTVDALYGVEGSLTLILEV,-0.207
8,HMLPLLEYLDPFTGKKTYTYLNPDTQHPIFTYYSYQDDKTGRTAYSYIDPLTGKAVNSDEPPMDILYD,-1.34
9,HMDIDNDIIENILVMGVTKAIAINLSNEFERHRIIANIEYAKEKSKNSEIKNISAFTVEAIRQDYANS,-1.12
10,HMASPEIAFLNKFYQLSNTVNEISVMKIVKNYQEKYQQRISIEQMAKTLKTMGYAVRNNIISNIEEAPV,0.0906
11,HMRRKNQVQSSYQKRENGTYTVRFFLSDDMGSIMDLQLMATREDMARALRERFLKDPEKIYGQIMQMLLR,0.241
12,HMGAITGLQSRVAFLKGQGTITDAEAKTAMAFLPDPTDSKEVKIAKIGQAREYIMSLIENRA,-0.0578
13,HMGAPAISYSKFLEQVDRKNVASVTIYKDGRIDGVMTSGSRFATESPSDPGLVGDLLKAGVEIRAKPP,0.144
14,HMATPAFEMYKVRRGDTPAGLAKEWGFPDMASFYRINPDARSDWKRGLQLVKPMNEMAVLQATA,0.109
15,HMRADYVGGLDPAGDNFLALRTGPGSGYAMILPMGPGTFVTVLRRNGKWLLVELEDGTRGWAYGSYILG,-1.16
16,HMELTVPDFTNMSLEDAINLAEKRDVRLEVTDSVFVKRLGRGFIYSQNPVAGSKVKKGRRILITINAIN,0.113
17,HMRKSAVSSTLTSIEGIGATRAKALLKHFKTVAAVSEADLKELEDAPGMTRPSALRVYEYFHGK,0.0795
18,HMVKDLEIETIRLNNLLASDAEEVLKSLGGAKPTYKAVAVPGSNSLVIEGTKADLIKLKSIINALEDGS,-0.316
19,HMNNPLLDKVYQLMKQNNITEEEIVRAVAMKGYFPDDMKLGDYPDDFIDGVLIGAWDQIKQFIINNISPFK,-0.359
20,HMVSPEVEMLRAAVETMSERQKQVYELHYLRGFNVKETAAILGMSSPTVTAHKKRIMEIIKKFFE,-0.88
21,HMNPSFTMGTRIKEYIDAHYLEDLKLADIAEALHINLYYLSHTFKDLTGSSPMQYIIRRRIEE,-0.603
22,HMESEAKLGVAFNGKTRFDMTFPADADNKTIEEAVLADERAQKYLEGFQVAKVIIVPKRMVNIVLK,≥ 0.43
23,HMTKQDYLTALQQELNKNAVADAEDIVSEYEQHFQFKLADGFTEEEIAAKLGAPAQIALQFAG,-1.64
24,HMDPKWSHVRRLLDDENPIVRKALTEELIRSPEEGLAFLEQVIREPDHLLAKHAHNLLSELGWV,0.0459
25,HMGGGTPEERLATLAAIAERQEMLLERLGPNNPLVSLGQYSRTLSRMVQLAGFKDASQYFNELPLDFQMPE,-0.437
26,HMSQDTLIENGKVFLIHKVVAGQTLYGLSKAYNITIEDIIKYNPQAENGIKIGEDIKIFLKEE,-1.1

row,Sequence,soluble fraction (log2)
1,HMNPLHYKAAHWVREGLFDDLKSFVELETRINSIFEEKDRGDVFEIFIEGYRSFSKWRALVLRLA,-0.44
2,HMDNMTEMQKAVTALIEKSGGSIDNLSVIYDHLKKKYPSFDLKDYGYSRFSSFLRSMENIMVRGNAVTLRS,0.0508
3,HMERPSLDQVLAHAKALGIAPARFVAYADGRWGTGWRLSPHGRARAWEELDRHRNDPLGYRDKLDVALQSG,0.181
4,HMQPDYRVLYSNFSDKDGGAIVAALEKMNVPYKFSEGGSAILVPAGQVHQARLKLAADGLPK,0.205
5,HMQEKQIIDGREFYIHQVERGITLYSIAKQYNVKVADIQAENPFLEAGLQPGQTLKIPLDKVETVQEIK,-0.17
6,HMEQVLNVAVRRGELIMSSAAEQTVRIYSSAGSMVWQGKVSASDVTVELPSGVYVVNGKKVV,-0.513
7,HMIENGILELKGKTGVAQTVLRPSGKVLIDDEIYDAVALTGYIEKADKVLVTKVEATQLYVEK,-0.289
8,HMAMSDFDALSNRISTLSQGRASAVRMKDGIVSLVLDIGGLSAEERKAMTAAIEGEGRGYPSVTQVRILET,0.0485
9,HMDEEAIELTQEVMKLPPKQREVILLYYYHGLTGKEIAKALGISGAAVSKRLKQAKNQLHFALK,0.0819
10,HMGRKPATTIPLQVRNAVLDLYRTKYYGANFQHYTELLHEHEGIRISTSSVAKILEAEYILSPK,-0.838
11,HMQYYITKIANYDQVSPNLLVRTAEGQYMVKTNADILDTDVTKLTEEEIRKDWGYLFENGFSELV,-0.681
12,HMLSAEAAAARTAISTLSEDQQRVLGLSIQRGLVHEQIARATGLPLGTVKTHIRRGLIKVREALEAQAAG,0.0049
13,HMAYRLDVRNQTKGTYLVIQKKYWDKEKKQSRTKHHMSLGYVHDLQKLYSDPITHYKEVINQMNAEEKG,0.0253
14,HMKDITMPNVYGLTLEMAEQTLKQSELSIFKAMKINSDTVEEGKVIYTDPKANSIVSGDQEITIYVSDGP,0.22
15,HMQSQIAQLYNPLLGYVKKRINSREDAEDLTQDIFLKLSKSNKDGVDNLKSWLYTIAKNTITDYYRKKKII,-0.0414
16,HMNDMPELLSIKEASQWATEYLNKNVTTSNIAYLIQYGRIRKIGNNGSTQVLKDDLVKYYKDQK,-0.0394
17,HMSPAVSLITGKLGAETYYKQGLKKAKEKDYEGALDDLIKAYEFFPDKKIKTQVDKLASFLGKPPIL,0.0374
18,HMQKNKSVLFKDIVIAFNQNPKKLFNYKQLAADLDIHSEAERMLISQLLNDLKDQNFLEEVERGKYKLKL,-0.479
19,HMGMYAEERHQAIASLARKHGRVSVAELAERFNVTSETIRRDLDSLARRGLLTRVHGGAVPVE,≥ 0.43
20,HMRQGHLDLLRQIHALPPSTREVVYLRAFGGLSFREIGDVLGRTETWARVTFYRGKEALRKG,-0.275
21,HMRDGHEQLQGVLSAIKFHQANFLIGVLDDGTTVKGNMLSPQVGLEYTFRGRRERHPRWGEQFAFMDYRV,-1.82
22,HMEYPNEIARIFNQIPELNVSAVARTLGINKSLLSSYIYGMKKPSPERTEEIKSAIRKIGQNMLAV,0.000369
23,HMTSVAYVIDRINKIQNVYSELEALGLKDEFEKILSNIEDLSKKDIREIKTLLKTKGVIKNLDDLNVKL,-1.24
24,HMAEVPDLRNKTQQEAEAELTNHNLKLGNVTEEYSATVEAGRVISQSTSYGTKVLEGSSVDITISKGPEPT,0.156
25,HMVMNKQEFLKILRDTLQSQLSSRETENHVEYYRTYIEEQMREGKTEIEILDVLGDPRLIARTILET,-0.253
26,HMRPPLRAAIIDHLARDWHTVAELARLLPASGAHVSRLVVELRAVGAVDERISHPDWPGNRPTEYRLRRA,-1.05

row,Sequence,soluble fraction (log2)
1,HMLQLKEPLKKVYERLTPVPKTAETILAELWEKGEYLDIAALHRALMELELSGYVRQSSPGYFGTSA,0.00945
2,HMAAGADEATTVPNVSGDTLNQAIKSLKAEGLGYMLSGAGARVRDQMPEPGAEMTKGSVVMLYMDGDAEVD,0.399
3,HMHPARITATVRVGEGDLVDIEREAELGGPIHSKGVMILSSFLGARYARTVPLSLSASLVFEQSY,0.0113
4,HMPNPALESARPAFEAFLSRFSDGEAMRGPAWGLWSLLHRKGNAPTASHAAGRDGMGVLAFLRHWQWG,-0.551
5,HMDLLAESLTRREAEVAALAARGLTNRAIAELFGLSVRTAETHLHRAMGKLGANRREDLLLHADRLDPG,-0.618
6,HMEVPDTIIRLRELVAAMPEQWQKVYRLVFMEGLSKAKAGKKIGISDVRVGQLVKKINAAIAGDETLK,0.0594
7,HMKHFFIIAGGKIEDAFAIEVLKGFAEKTVIAADSGMEFLRRNEIVPQVIIGDFDSVSKETLEWFQKK,0.22
8,HMDTNKMLIVNSISNGMKRLQELQDPQLAEIQKTFSGLDEQKATSAQLAQINNIINNRIAEIEG,0.191
9,HMSNHYETLGVPRDASQEDIKRAYRRLARKLHPDVAGPGKAEEFKAVNEAYAVLSDEESRRMYDLGGDDAL,0.145
10,HMSIEHVPGYTTLSKREQEIVHALLTRKTPEELADDLSISINTLNKHISHIYHKLGIRGRMQLFDYA,-0.0894
11,HMKRSFGYIRLLPSKRYQASYIGPDSQRHAAPETFTRKMDAEGWLSAERRLIEWDQWTSPEQRAAQARLD,0.127
12,HMKQLLHLVIGGELKDVRGIEFEDLSKIDFVGAFPSYKAAYDAWKNAAQRTVDNAEMRYFILHAHR,-1.37
13,HMSTNYVQVLRAALNGVSGRKLAQQYRVSRDTVAILLRQAKIQGWQRAEDLENITEEDLVALLSG,-0.987
14,HMQERNYIVRRGDTLWDLAKTYYGSGTKYTVIYDANRDNIEAEAKRRGKQSSNGGYWIYPGTELTI,-0.0819
15,HMKHKHHIIPKHKGGTDHPDNLIELTVEQHAKAHWVEFMLDGREEDYWAWKGLEGVASKKDIIYALSKR,-0.313
16,HMASENISYSQFINQVKNSMVESVSIEADGKTISGKYKSGSSFVTYGLNDPKLVDDLLSNNVEIL,0.0122
17,HMKTALDEAKDFLNGALSKGHRPASDVVDEAKEASISEKTLKRAKLAIGIITRKEGFGSEGKWVWELPAR,0.0771
18,HMESPSGGHRIALAFDQGTARAVDATYARLTGAGYEGRTKPWDAPWGQRYATVFDPDGNSVDLFAALE,-0.544
19,HMTKKFQIQTLDKLNVRKVADWNASAVTTVKKGQILDVVAEVSPKNGSTKMYKLESGLYITASEKYVKKQG,≥ 0.43
20,HMSLDTASDKELLGLIVSEPIATRVLDAFRTLDATLFRTTPAELAAAAGVSSEHAQKIKAVAEIAARMLKP,-0.363
21,HMTSDYEPSEKDEKAVIGIAFLRNTDVYDVDIDKAEAIKALKANNDIYQKFVKFFPFVKLPSLYDDFQ,-0.109
22,HMVITATYTDFMDALEADEVKQVQFSSTEINYTIEKGGHVQYFKTGVVDNPQLPQILREKGVTYAAEIP,-0.023
23,HMKNVADEVFEKMLNMIIEGDWKKGEMIPSENELREAFSVSRSTVRQAVQRLSALGIVRSRQGKGTYVEQV,0.0309
24,HMLTSIDQMLKLAMPDSDITVSKMNGLILLTGTVKAPEDAAEAERLVQAFSAPPPGQPPVTVVSRLRTA,0.22
